T1: amphyphisin SH3 (AMPH_HUMAN), P49418
T1 chain: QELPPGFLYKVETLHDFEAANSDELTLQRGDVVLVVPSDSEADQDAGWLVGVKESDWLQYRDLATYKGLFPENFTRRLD


Experiments:
[1] = molecular target: T1, amphyphisin SH3 (AMPH_HUMAN), P49418; experiment: SPOT array
[2] = molecular target: endophilin SH3 (SH3G2_HUMAN), Q99962; experiment: SPOT array

Binder | normalised SPOT signal, Boehringer light units (BLU); mean over the file's lines of this peptide [1] | normalised SPOT signal, Boehringer light units (BLU); mean over the file's lines of this peptide [2]
RPVLPQRPPEERPP [Q9BXX0 822-836] | 252 | 420
RPTFLRRPINQVVL [Q9HCK4 226-239] | 169 | 575
RQHLPERPRRSPLS [Q9H6G5 120-133] | 5990 | 11100
RQSQLQRPLRGFTW [Q9HCU0 92-105] | 1210 | 235
AVKSLKRPLEATFD [Q9NR56 273-286] | 23.6 | 20.3
RPALPGRPPRWLNR [Q8TDZ8 103-117] | 16100 | 13400
RPTVPARPPATHPR [Q8TDP0 171-185] | 8140 | 14800
RQLRLRRPDDGSRE [Q9NR61 553-566] | 39.7 | 61.3
RPSFLRRPVNQVVL [Q96MS0 257-270] | 43.9 | 171
RPRRPRRPGPSDPA [Q96QG0 344-357] | 594 | 1340
RPSTLRRPAYRDNQ [Q9Y520 1361-1374] | 44.5 | 112
AVGPPKRPQPAALE [Q9ULK5 32-45] | 31.9 | 393
RPNPLRRPLNRKRA [Q96CZ1 23-36] | 156 | 200

The remaining lines, values ahead:

normalised SPOT signal, Boehringer light units (BLU); mean over the file's lines of this peptide [1] | normalised SPOT signal, Boehringer light units (BLU); mean over the file's lines of this peptide [2] | Binder
197 | 213 | RPAVLPRPEKPQLP [P78314 398-411]
352 | 2930 | RMLVPGRPVKDATP [O94938 456-469]
12 | 67.7 | RPPNLKRPEDYEAV [O75992 403-416]
3930 | 1270 | RPHAPGRPARGKVQ [Q16439 323-336]
35.7 | 3820 | RPPPPRRPQGPPPP [Q04118 259-272]
163 | 5260 | RPAKPHKPPGSMGL [O60292 677-691]
13300 | 4970 | RPPGPRRPERGPRG [P08913 304-317]
29.1 | 15.8 | RNPVLRRPPILEDY [Q96S08 361-374]
1990 | 12200 | RPAPPQRPPPPSGA [O43426 1118-1132]
54.8 | 501 | RPALPGRPPQVAEQ [BAC05290 145-159]
32.4 | 89 | RPPPPAKPPPDEEE [Q92625 451-465]
1830 | 149 | RPEDPTRPSRFQQQ [O15067 285-298]
3660 | 1530 | RPVAPRRPRDAVGQ [O43541 61-74]
5400 | 8560 | RPPVPPRPPRPPET [P52849 66-80]
774 | 1450 | RPPFLSRPARGLYS [Q16512 357-370]
7260 | 13600 | RPPRPSRPPPPTPR [O43584 87-101]
170 | 68 | RQIPPYRPPQQGPP [Q15532 247-261]
46.6 | 325 | RQGPPQKPPGPAGP [P17600 586-600]

From paper PMC314469, “Protein Interaction Networks by Proteome Peptide Scanning” (PLoS Biology, 2004)
